According to the nanobody polyreactivity screen of Harvey et al. (2022):

Experiment: yeast display, Sf9 membrane polyspecificity reagent, FACS + sequencing; frameworks hold sequencing errors
Method in brief: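 Polyreactivity labels are assigned by the sorting gate from which each nanobody was recovered. The gates were low and high (top ~1%), set on anti-HA fluorescence for expression and streptavidin fluorescence for reagent binding. Before sorting, galactose-induced (36–48 hours) yeast display cells were stained for 1 hour at 4 °C with 10% biotinylated, detergent-solubilized Sf9 membrane reagent.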

Sequence	polyreactivity (PSR sort gate)
QVQLVESGGGLVQAGGSLRFSCAASGRTLGYYTMGWYRQAPGKESELVATITPGGSTNYADSVKGRFTISRDHAKNTVYLQMNRLKPEDTAVYYCAKKKRRGYGYDYWGQGTQVTVSS	high polyreactivity
QVQLVESGGGLVQAGGSLRFSCAASGSIFQHYAMGWYRQAPGKERELVAAISWSGGSTYYADSVKGRFSISRDNAKNTVYLQMNSLKPEDTAVYYCAATKRRFVKFDYWGQGTQVTVSS	low polyreactivity
QVQLVESGGGLVQAGGSLRFSCAASGSIFRVNAMGWYRQAPGKERELVAAITDGGITNYADSVKGRFTISRDNAKNTVYLQMNSLKPEDTAVYYCAADTDRDFHYVVPTYDYWGQGTQVTVSS	low polyreactivity
QVQLVESGGGLVQAGGSLRFSCAASGSIFSLNTMGWYRQAHGKERELVAAITRGGSTYYADSVKGRFTISRDNAKNTVYLQMNSLKPEDTAVYYCAAVPGGNISAPYDYWGQGTQVTVSS	high polyreactivity
QVQLVESGGGLVQAGGSLRFSCAASGSIIFDGNAMAWSRQAPGKEREMVADITTSDGRTYYADSVKGRFTISRDSAKNTVYFQMNSLKPEDTAVYDCAKPNGYHGGRYDYWGQGSQVTVSS	low polyreactivity
QVQLVESGGGLVQAGGSLRFSCAASGSTFLSNAIGWYRLAPGKERELVAAISIGGGRTYYADSVKGRFTISRDNAKNTVYLQMNSLKPEYTAVYYCNAVGRHTDAYHYDYWGQGTQVTVSS	high polyreactivity
QVQLVESGGGLVQAGGSLRFSCAASGSTFRDYAMGWYRQAPGKERELVAAISSRGATTYYADSVKGRFTISRDNAKNTVYLQMNSLKPEDTAVYYCNARQRRNPGGYGYWGQGTQVTVSS	high polyreactivity
QVQLVESGGGLVQAGGSLRFSCAASGSTFSYYTMGWYRQAPGKERELVATISRRGASTYYADSVKGRFTISRDNAKNTVYLQMNSLKPEDTAVYYCAKSYYYGRSATRPEYDYWGQGTQVTVSS	high polyreactivity
QVQLVESGGGLVQAGGSLRFSCAASGSTFYGYVMGWYRQAPGKERELVAAISSSGGRTYYADSVKGRFTIARDYAKNTVYLQMNSLKPEDTAVYYCNTVQRYSTHYDYWGQGTQVTVSS	high polyreactivity
QVQLVESGGGLVQAGGSLRFSCAASGTFVPYAMGWYRQAPGKEMELVARITWRGGSTYYADSVKGRFTISRDNAKNTVYLQMNSLKPEDTAVYYCATVSDNRYYYWGQGSQVTVSS	low polyreactivity
QVQLVESGGGLVQAGGSLRFSCADSGSTFGTYAMGWYRQAPGKERELVAAISWSGGSTYYADSVKGRFTISRDNAKNTVYLQMNSLKPEDTAVYWGQGTQVTVSS	low polyreactivity
QVQLVESGGGLVQAGGSLRFSCGGWGSISEVYAMGWYRPAPGKERELVAAITSGASTNYADSVNGRFTISRDNAKNTVYLQMNSLKPEDTAVYYCAADSDSQWGMDYWGQGTQVTVSS	low polyreactivity
QVQLVESGGGLVQAGGSLRIICAASGRTFATYAMGWYRQAPGKERELVAVISRSGGRTYYADSVKGRFTISRDNAKNTVYLQMNSLKPEDTAVYYCAASYGPSTWTSSYYYWGQGTQVTVSS	high polyreactivity
QVQLVESGGGLVQAGGSLRIICAASGSIFPYYAKGWYRQAPGKERELVARITITGGITYYADSVKGRFSISRDNAKNTVYLQMHSLKPEDTAVYYCAADRDWQYSFRHSVYVYDYDFWGQGTQVTVSS	low polyreactivity
QVQLVESGGGLVQAGGSLRISCAASARIFQVYGMGWYRQAPGKERELVASITYRGGSTYYADSVKGRFTISRDNAKNNVDLQMNSLKPEDTAVYYCAADGAFYASTEMDYWGQGTQVTVSS	low polyreactivity
QVQLVESGGGLVQAGGSLRISCAASGFIFGWYAMGWYRQAPGKERELVAVIRSGGRTNYADSVKGRFTISRDNAKNTVYLQMNSLKPEDTAVYYCNAVGGRGYGGGYWGQGTQVTVSS	high polyreactivity
QVQLVESGGGLVQAGGSLRISCAASGFIFHVYAMGWYRQAPGKERELVAAISSGGSTYYADSVKGRFTISRDNAKNTVYLQMNSLKPEDTAVYYCNVARSRYRYRYDYWGQGTQVTVSS	high polyreactivity
QVQLVESGGGLVQAGGSLRISCAASGFIFKKNAMGWYRQAPGKERELVAAITSSGGSTYYADSVKGRFTISRDNAKNTVYFQMNSLKPEDSAVYYCARDKEQQGYRLFGYWGQGTQVTVSS	high polyreactivity
QVQLVESGGGLVQAGGSLRISCAASGFIFPYNSMGWYREAPGKERELVARISSGGSTNYADSVKGRFTISRDNAKNTVYLQMHSLKPEDTAVYYCNARYRWGWTYLRYGSYDYWGQGTQVTVSS	high polyreactivity
QVQLVESGGGLVQAGGSLRISCAASGFIFQYNTMGWYRQAPGKERELVAVITRTGSTNYADSVKGRFTISRDNAKNTVYLQMNSLKPEDTAVYFCATSFYSRPRKARYYYWGQGTQVTVSS	high polyreactivity
QVQLVESGGGLVQAGGSLRISCAASGFIFSRNAMGWYRQAPGKERELVAAISAGGGSTYYADSVKGRFTISRDNAKNTVYLQMNSLKPEDSAVYSCAAYFRSQFGYWGQGTQVTVSS	high polyreactivity
QVQLVESGGGLVQAGGSLRISCAASGFIFVRYAMGWYRQAPGKEREFVAVISRRGGSTHYADSVKGRFTISRDNAKNTVYLQMNSLKPEDTAVYYCAAVRRVYSQNDYWGQGSQVTVSS	high polyreactivity
QVQLVESGGGLVQAGGSLRISCAASGFILYYYAMGWYRQAPGKERELVAAISRNGGRTYYAVSVKGRFTISRDNAKNTVYLQMNSLKPEDTAVYYCNKGVSRTLSSAYDYWGQVTQVTVSS	high polyreactivity
QVQLVESGGGLVQAGGSLRISCAASGFISYYYAMGWYRQAPGKERELVAAITKSGGSTYYADSVKGRFTISRDNAKNTVYLQMNSLKPDDTAVYYCAADRSTRNSTSRLYGYWGQGTQVTVSS	low polyreactivity
QVQLVESGGGLVQAGGSLRISCAASGFSFRYYAMGWYRQAPGKERELVAAISGSGGSTYYADSVKGRFTISRDNAKNTVYLQMNSLKPEDTAVYYCARYYTYREYDYWGQATQVTVSS	high polyreactivity
QVQLVESGGGLVQAGGSLRISCAASGFTFPYYAMGWYRQAPGKERELVAAISYNGGSTYYADSVKGRFTISRDNAKNTVYLQMNSLKPEDTAVYYCNAVYYDSGVVGYYYWGQGTQVTVSS	high polyreactivity
QVQLVESGGGLVQAGGSLRISCAASGFTFRKYTMGWYRQAPGKERELVAAISRRGGSTYYADSVKGRFTISRDNAKNTVYFQMNSLKPEVTAVYYCATDHIPSVGVDYWGQGTQVTVSS	high polyreactivity
QVQLVESGGGLVQAGGSLRISCAASGFTFRYYALGWYRQAPGKERELVAAILSSGGSTYYADSVKGRFTISRDNAKNTVYLQINSLKPVDTAVYYCNKVWDRRYDYWGQGTQVTVSS	high polyreactivity
QVQLVESGGGLVQAGGSLRISCAASGFTFRYYAMGWYRQAPGKERELVATISTGSGVSTYYADSVKGRFTISRDNAKNTVYLQMNSLKPEDTAVYYCAADYDSYYAYRTPYGYWGQGTQVTVSS	low polyreactivity
QVQLVESGGGLVQAGGSLRISCAASGFTFWRYALGWYRQAPGKERELVAAISTGGSTNYADSVKGRFTISRDNAKNTVYLQMNSLKPEDTAVYYCNRQWNFTPYRRNYWGQGTQVTVSS	high polyreactivity
